Reference: patent US20090142377A1

Target: dH5-II (cdH5-0 heat-cycled at pH 2, back to pH 7) (influenza A virus H5N1 strain A/Vietnam/1203/04), Q8QPL1
Test: ELISA, coated H5 form, tPA series with excess e-amino caproic acid
Conditions: remark: other sources report otherwise

B1: tissue type plasminogen activator (tPA; Actilyse, Boehringer-Ingelheim), P00750 36-562 (enzyme)
chain: SYQVICRDEKTQMIYQQHQSWLRPVLRSNRVEYCWCNSGRAQCHSVPVKSCSEPRCFNGGTCQQALYFSDFVCQCPEGFAGKCCEIDTRATCYEDQGISYRGTWSTAESGAECTNWNSSALAQKPYSGRRPDAIRLGLGNHNYCRNPDRDSKPWCYVFKAGKYSSEFCSTPACSEGNSDCYFGNGSAYRGTHSLTESGASCLPWNSMILIGKVYTAQNPSAQALGLGKHNYCRNPDGDAKPWCHVLKNRRLTWEYCDVPSCSTCGLRQYSQPQFRIKGGLFADIASHPWQAAIFAKHRRSPGERFLCGGILISSCWILSAAHCFQERFPPHHLTVILGRTYRVVPGEEEQKFEVEKYIVHKEFDDDTYDNDIALLQLKSDSSRCAQESSVVRTVCLPPADLQLPDWTECELSGYGKHEALSPFYSERLKEAHVRLYPSSRCTSQHLLNRTVTDNMLCAGDTRSGGPQANLHDACQGDSGGPLVCLNDGRMTLVGIISWGLGCGQKDVPGVYTKVTNYLDWIRDNMRP
B1 gave a Bmax of 0.07 and a Kd of 19 nM.
